In patent US20240010735A1 (EISAI R AND D MANAGEMENT, published 2024):

How the values were obtained:
[1] = target: T1, mouse EphA4 extracellular region-SEAP-His protein (mouse); assay: ELISA: EphA4 extracellular region-SEAP-His (1 nM) captured on anti-alkaline phosphatase antibody, antibody B titrated with human IgG 100 µg/mL, HRP anti-human IgG, OD450 as % of top concentration
T1 construct: also called mouse EphA4 extracellular region-SEAP-His 10
Method: (§1) Anti-alkaline phosphatase antibodies (Thermo […]) were coated onto the wells of a 96-well plate (Nunc). After incubating at 4° C. overnight, the wells were blocked at room temperature for 1 hour by 1% Block Ace (DS Pharma Biomedical). After washing 3 times with 0.05% Tween 20/PBS (Thermo […]), mouse, rat, monkey, and human EphA4 extracellular region-SEAP-His proteins (final concentration 1 nM) were seeded into the wells, and incubated at room temperature for 1 hour. After washing 3 times, human IgG solution (100 μg/mL, Mitsubishi Pharma Corporation) and antibody B (0, 0.00013, 0.00064, 0.0032, 0.016, 0.08, 0.4, 2, 10 μg/mL) were supplemented to the wells, and incubated at room temperature for 1 hour. Horseradish peroxidase-labeled donkey anti-human IgG antibody (Jackson ImmunoResearch Laboratories) was added, and incubated at room, temperature for 1 hour. After washing 3 times, TMBZ (3,3′,5,5′-tetramethylbenzidine, Sigma) solution was added to the wells, and upon confirmation of modest coloring, an equal amount of quenching solution (1 N H₂SO₄, Wako Pure Chemicals) was added to the wells, and absorbance at 450 nm was read by a microplate reader (PerkinElmer).

[2] = target: T2, rat EphA4 extracellular region-SEAP-His protein (rat, UniProt D3ZZK3 20-547); assay: as above
T2 construct: extracellular domain; Its preparation is not described; the limits 20-547 are stated for the Fc-His construct of rat EphA4; not shown: secretory alkaline phosphatase (SEAP); histidine tag
Method: as §1

[3] = target: T3, monkey EphA4 extracellular region-SEAP-His protein (monkey); assay: as above
T3 construct: Its preparation is not described; not shown: secretory alkaline phosphatase (SEAP); histidine tag
Method: as §1

[4] = target: T4, human EphA4 extracellular region-SEAP-His protein (human, UniProt P54764 20-547); assay: as above
T4 construct: also called human EphA4 extracellular region-SEAP-His 10; not shown: secretory alkaline phosphatase (SEAP); histidine tag
Method: as §1

[5] = target: T5, mouse EphA4 extracellular region-Fc-His protein (mouse; human, UniProt Q03137 20-547); assay: ELISA; Eph receptor extracellular region-Fc-His captured by anti-6-His antibody, antibody at 10 µg/mL
T5 construct: Used as culture supernatant of transfected cells; not shown: Fc region of human IgG1; histidine tag
Method: For antibody B, the evaluation of the binding activity of mouse Eph receptor was carried out according to the following steps.
Rabbit anti-6-His antibodies (Bethyl Laboratories) were coated onto the wells of a 96-well plate (Nunc). After incubating at 4° C. overnight, the wells were blocked at room temperature for 1 hour by 1% Block Ace (DS Pharma Biomedical). After washing 3 times with 0.05% Tween 20/PBS (Thermo […]), each Eph receptor of mouse extracellular region-Fc-His protein (final concentration 1 nM) was seeded into each well, and incubated at room temperature for 1 hour. After washing 3 times, human IgG solution (100 μg/mL, Sigma) and antibody B (10 μg/mL) were supplemented to the wells, and incubated at room temperature for 1 hour. Horseradish peroxidase-labeled goat anti-human Kappa Light Chain antibody (IBL) was added, and incubated at room temperature for 1 hour. After washing 3 times, TMBZ (3,3′,5,5′-tetramethylbenzidine, Sigma) solution was added to the wells, and upon confirmation of modest coloring, an equal amount of quenching solution (1 N H₂SO₄, Wako Pure Chemicals) was added to the wells, and absorbance at 450 nm was read by a microplate reader (PerkinElmer).

[6] = target: T1, mouse EphA4 extracellular …; assay: SPR, Biacore T200; EphA4 extracellular region-SEAP-His captured on anti-His chip, antibody as analyte, 1:1 model
Method: The binding affinity of antibody A against mouse and human EphA4 was determined by surface plasmon resonance (SPR method) employing Biacore T200 (GE Healthcare). First, anti-His antibodies (GE Healthcare, 28-9950-56) were fixed to a sensor chip CM5. Fixation was carried out by amine coupling method employing N-hydroxysuccinimide (NHS) and N-ethyl-N′-(3-dimethylaminopropyl) carbodiimide hydrochloride salt (EDC), and ethanolamine was employed for blocking (the sensor chip and reagents for fixation are all from GE Healthcare). This was diluted with the fixation buffer (10 mM sodium acetate, pH 4.5) to 3.5 μg/mL, and fixed onto the sensor chip according to the protocol accompanying Biacore T200. Mouse or human EphA4 extracellular region-SEAP-His 10 was diluted with the running buffer HBS-EP (GE Healthcare, BR-1001-88), and the solution was sent and captured onto the flow cell for 120 seconds (about 10 RU of captured amount). Subsequently, antibody A serially diluted to a range of 100, 50, 25, 12.5, 6.3, 3.2, 1.6, 0 nM with HBS-EP was added to the sensor chip for 120 seconds, and the binding reaction curve at the time of addition (binding phase, 120 seconds) and after completing the addition (dissociation phase, 600 seconds) was sequentially observed. Upon completion of each observation, 4 M MgCl₂ (60 seconds, Wako Pure Chemicals) was added to regenerate the sensor chip. Fitting analysis by 1:1 binding model employing the software accompanying the system, BIA evaluation software, was carried out against the binding reaction curve obtained, and the binding affinity (KD=kd/ka) against mouse and human EphA4 was calculated.
The binding affinity of antibody B obtained in Example 1 against human EphA4 was determined by surface plasmon resonance (SPR method) employing Biacore T200 (GE Healthcare). First, anti-His antibodies (GE Healthcare, 28-9950-56) were fixed to a sensor chip CMS. […]

T1 sequence (chain, as listed by the source limits assumed): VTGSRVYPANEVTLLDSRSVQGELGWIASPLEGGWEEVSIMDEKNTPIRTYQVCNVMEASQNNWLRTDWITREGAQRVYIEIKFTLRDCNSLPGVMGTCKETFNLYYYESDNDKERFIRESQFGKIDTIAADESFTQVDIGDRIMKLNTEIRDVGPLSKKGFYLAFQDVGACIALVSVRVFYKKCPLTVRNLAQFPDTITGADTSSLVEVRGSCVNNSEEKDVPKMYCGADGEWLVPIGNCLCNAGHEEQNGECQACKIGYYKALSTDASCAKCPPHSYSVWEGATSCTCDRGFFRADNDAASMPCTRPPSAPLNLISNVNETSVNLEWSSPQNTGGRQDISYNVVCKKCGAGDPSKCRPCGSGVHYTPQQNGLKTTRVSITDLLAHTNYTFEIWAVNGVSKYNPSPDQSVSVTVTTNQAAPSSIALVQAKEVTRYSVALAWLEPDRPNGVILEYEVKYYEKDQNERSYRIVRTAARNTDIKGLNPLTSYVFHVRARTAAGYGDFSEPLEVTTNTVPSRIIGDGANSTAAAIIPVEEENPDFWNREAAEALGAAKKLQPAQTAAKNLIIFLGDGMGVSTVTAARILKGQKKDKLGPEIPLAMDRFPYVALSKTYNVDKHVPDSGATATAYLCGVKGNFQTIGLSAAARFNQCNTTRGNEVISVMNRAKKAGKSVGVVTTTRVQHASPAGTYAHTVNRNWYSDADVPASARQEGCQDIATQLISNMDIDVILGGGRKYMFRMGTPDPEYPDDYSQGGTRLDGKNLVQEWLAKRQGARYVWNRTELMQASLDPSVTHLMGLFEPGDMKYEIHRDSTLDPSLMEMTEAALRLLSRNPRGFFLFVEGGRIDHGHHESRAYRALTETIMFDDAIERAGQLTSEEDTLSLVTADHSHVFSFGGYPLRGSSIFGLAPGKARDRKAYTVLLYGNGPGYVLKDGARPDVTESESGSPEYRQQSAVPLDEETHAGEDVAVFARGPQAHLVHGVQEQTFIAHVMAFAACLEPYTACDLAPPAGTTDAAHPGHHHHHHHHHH
T4 sequence (P54764 20-547): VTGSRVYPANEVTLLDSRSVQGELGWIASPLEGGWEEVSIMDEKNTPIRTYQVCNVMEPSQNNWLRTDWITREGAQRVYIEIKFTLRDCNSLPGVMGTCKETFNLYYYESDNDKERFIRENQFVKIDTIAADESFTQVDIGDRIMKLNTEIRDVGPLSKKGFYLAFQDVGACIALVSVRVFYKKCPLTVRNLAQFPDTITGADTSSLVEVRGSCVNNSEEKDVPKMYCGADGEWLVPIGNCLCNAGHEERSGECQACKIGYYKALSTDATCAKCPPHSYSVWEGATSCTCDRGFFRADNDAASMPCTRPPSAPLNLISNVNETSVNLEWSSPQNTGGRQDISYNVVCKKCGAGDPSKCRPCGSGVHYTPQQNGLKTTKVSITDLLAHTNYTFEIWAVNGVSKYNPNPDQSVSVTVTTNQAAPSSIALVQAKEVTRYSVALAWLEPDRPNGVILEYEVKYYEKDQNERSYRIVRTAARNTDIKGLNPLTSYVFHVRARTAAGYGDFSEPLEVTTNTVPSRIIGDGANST
T3 sequence (chain, as listed by the source): as the sequence (P54764 20-547) above, with N406S counted along it
T2 sequence (D3ZZK3 entry or part of it): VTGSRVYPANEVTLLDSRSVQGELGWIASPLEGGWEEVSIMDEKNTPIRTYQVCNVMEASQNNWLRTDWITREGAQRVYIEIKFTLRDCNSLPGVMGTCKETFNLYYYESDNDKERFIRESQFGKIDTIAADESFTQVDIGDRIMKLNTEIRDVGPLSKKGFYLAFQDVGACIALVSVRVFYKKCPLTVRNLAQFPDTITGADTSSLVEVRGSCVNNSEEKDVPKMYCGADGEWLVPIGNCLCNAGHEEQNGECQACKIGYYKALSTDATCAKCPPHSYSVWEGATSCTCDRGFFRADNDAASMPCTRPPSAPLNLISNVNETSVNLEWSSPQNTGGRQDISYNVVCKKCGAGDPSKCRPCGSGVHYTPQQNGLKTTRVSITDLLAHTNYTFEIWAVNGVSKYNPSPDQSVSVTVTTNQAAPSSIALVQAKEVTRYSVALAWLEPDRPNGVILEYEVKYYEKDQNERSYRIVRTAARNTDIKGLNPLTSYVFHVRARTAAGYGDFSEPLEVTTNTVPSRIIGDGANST
T5 sequence (Q03137 20-547): as the sequence (P54764 20-547) above, with P59A, N121S, V124G, R250Q, S251N, T270S, K378R, N406S counted along it

B1: humanized anti-EphA4 monoclonal antibody (antibody B) (antibody, human IgG2, V domains shown)
VH: QVQLVESGGGVVQPGRSLRLSCAVSGFSLTRFGVHWVRQAPGKGLEWVAVIWRGGSTDYNAAFMSRLTISKDNSKNTVYLQMNSLRAEDTAVYYCAKESLFGVYYDYGYYSMDYWGQGTTVTVSS
VL: DIQMTQSPSSLSASVGDRVTITCRASQEISGYLSWLQQKPGKAPKRLIYAASTLDSGVPSRFSGSRSGTEYTLTISSLQPEDFATYYCLQYASYPLTFGGGTKVEIKR
notes: expressed in Expi293F cells; also called humanized antibody of antibody A; HK2-42 / L1-8
[1]
  EC50 (read off the curve): ~0.3 nM
[2]
  EC50 (read off the curve): ~0.3 nM
[3]
  EC50 (read off the curve): ~0.3 nM
[4]
  EC50 (read off the curve): ~0.3 nM
[5]
  binding result: binds

B2: mouse anti-EphA4 monoclonal antibody (antibody A) (antibody, mouse IgG1, kappa, V domains shown)
VH: QVQLKQSGPSLVQPSQSLSITCTVSGFSLTRYGVHWVRQSPGKGLEWLGVIWRGGSTDYNAAFMSRLSITKDNSKSQVFFKMNSLQADDTAIYYCAKESLFGVYYDYGYYSMDYWGQGTSVTVSS
VL: DIQMTQSPSSLSASLGERVSLTCRASQEISGYLSWLQQKPDGTIKRLIYAASTLDSGVPKRFSGSRSGSDYSLTISSLESEDFADYYCLQYASYPLTFGAGTKLELKR
notes: purified from hybridoma supernatant
[6]
  Kd: 1.32 nM
